Consider 18 molecules from patent US20250304662A1 (published 2025).

Assay in all cases: ELISA
Background: ELISA stands for enzyme-linked immunosorbent assay.

In one assay the target is T1, Kp FimHLD.
T1 chain: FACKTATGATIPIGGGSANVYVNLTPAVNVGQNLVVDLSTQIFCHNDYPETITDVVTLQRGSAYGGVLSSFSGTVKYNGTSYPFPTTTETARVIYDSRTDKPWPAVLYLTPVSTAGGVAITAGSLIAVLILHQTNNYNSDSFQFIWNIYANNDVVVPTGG

The target in the next assay is Ec FimHLD.
For the next assay, the target named is T2, Ec FmlHLD.
T2 chain: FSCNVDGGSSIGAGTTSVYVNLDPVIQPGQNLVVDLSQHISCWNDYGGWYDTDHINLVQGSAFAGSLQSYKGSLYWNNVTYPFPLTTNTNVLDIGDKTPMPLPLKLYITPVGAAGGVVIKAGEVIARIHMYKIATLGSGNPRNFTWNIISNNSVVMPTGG

B1: Kp 1D09 (antibody, V domains shown)
VH: EVQLQQPGAELVKPGASVKLSCKASGYTFTNYWIHWMKQRPGRGLEWIGRIEPNSGDTKYNEKIKSRATLTVDKPSSTAYMQLSSLTSEDSAVYYCARSGYDYPEAWGQGTTLTVSS
VL: DIVLTQSPASLAVSPGQRATISCRASEGVEYYGTTLMQWYQQKPGQPPKLLIYAASNVESGVPARFSGSGSGTDFSLNIHPVEEDDIAMYFCQQSRKVSWTFGGGTKLEIKR
As usually defined, the EC50 is the midpoint of the concentration-response curve. A low value points to an effect from little substance. In the case of B1, the EC50 in the assay with Kp FimHLD came out at 0.0383 µg/mL; with Ec FimHLD, 0.0227 µg/mL.

B2: Kp 2B06 (antibody, V domains shown)
VH: EVQLQQPGAELVKPGASVKLSCKASGYTFTNYWMHWVKHRPGRGLEWIGRIDPNSGGTKYNEKFKNKATLTVDNPSSTGYMQLSSLTSEDSAVYYCTRSGYDYPDYWGQGTTLTVSS
VL: DIVLTQSPASLAVSLGQRATISCRASESVEYYGTSLMQWYQQKPGQPPKVLIYAASNVDSGVPPRFSGSGSGTDFSLNFHPVEEDDIAMYFCQQSRKVPWTFGGGTKLEIKR
Regarding B2, the EC50 came to 0.0169 µg/mL with Kp FimHLD and 0.0092 µg/mL with Ec FimHLD.

B3: Kp2 2C07 (antibody, V domains shown)
VH: EVKLVESGEGLVKPGGSLKLSCAASGFTFSSYAMSWVRQTPEKRLDWVAYISSGGDHIYYADTVKGRFTISRDNARNTLYLQMSSLKSEDTAMYYCTRDTGYYVSRYFDVWGTGTTVTVSS
VL: DIVMTQSQKFMSTSVGDRVSVTCKASQNVVTNVAWYQQKSGQSPKVVIYSASFRSSGVPDRFTGSGSGTDFTLTISNVQSEDLAEYFCHQYNSHPLTFGGGTKLEIKR
On to B3, for which the EC50 in the assay with Kp FimHLD worked out at 0.0186 µg/mL; with Ec FimHLD, 0.013 µg/mL.

B4: Kp 2C09 (antibody, V domains shown)
VH: EVMLVESGEDLVKPGGSLKLSCIASGFTFSSYAMSWVRQTPEKRLEWVAYISSGGDYIYYTDTVKGRFTISRDNARNTLFLQMSSLKSEDTAMYYCTRDTGYYVSRYFDVWGTGTTVTVSS
VL: DIVMTQSQKFMSTSVGDRVSVTCKASQNVGTNVAWYQQKPGQSPKALIYSASFRNSGVPDRFTGSGSGTDFTLTISNVQSEDLAEYFCHQYNNYPLTFGGGTKLEIKR
Turning to B4, the figures for the EC50 with Kp FimHLD and in the assay with Ec FimHLD were 0.0101 µg/mL and 0.0129 µg/mL, respectively.

B5: Kp 2D07 (antibody, V domains shown)
VH: EVQLQQSGPELVRPGASVKISCKASGYTFTDYYIHWLKQRPGQGLEWIGLIFPGSGSIYCNEKFKGKATLTVDKSSTTAYMLLSSLTSEDSAVYFCARWETTAWYFDVWGTGTTVTVSS
VL: QIVLTQSPAILSASPGEKVTMTCRASLSVSYMHWYQQKPGSSPKPWIYATSNLASGVPARFSGSGSGTSYSLTVSRVEAEDAATYYCQQWRSYPYTFGGGTKLEIKR
B5: the figures for the EC50 in the assay with Kp FimHLD, in the assay with Ec FimHLD and with Ec FmlHLD were 0.0144 µg/mL, 0.0129 µg/mL and 0.0178 µg/mL, respectively.

B6: Kp 2D04 (antibody, V domains shown)
VH: EVQLQQPGGELVRPGSSVKMSCKTSGYTFTFYGINWVKQRPGQGLEWIGYIYVGNGYTEYNEKFKVKATLTSDTSSSTAYMQLSGLTSEDSAIYFCARSDGYNYFDYWGQGTTLTVSS
VL: QIVLTQSPAILTASPGEKVTMTCRASSSVHYMHWYQQKPGSSPKPWIYATSNLASGVPARFSGSGSGTSYSLTISRVEAEDTATYYCHQWSSNPPTFGAGTKLEIKR
With B6, the EC50 with Kp FimHLD stood at 0.0119 µg/mL; with Ec FimHLD, 0.0121 µg/mL.

B7: 2G04 (antibody, V domains shown)
VH: EVQLQQPGPELVKPGSSLKISCKASGYTFTDYFINWVKQRPGQGLDWIGWIFPGSGSTYYNDKFKGKATLTVDKSSSTAYMLLSSLTSEASAVYFCARWDSDSTYWYFDVWGTGTTVTVSS
VL: QIVLTQSPALMAASPGEKVTITCSVNSSISSSTLHWYQQKSQTSPKPWIYGTSNLASGVPIRFSGSGSGTSYSLTISSMEAEDAATYYCQQWSTYPYTFGGGTKLEIKR
Consider B7, for which the values for the EC50 with Kp FimHLD, in the assay with Ec FimHLD and with Ec FmlHLD were 0.0081 µg/mL, 0.0115 µg/mL and 2.89 µg/mL, respectively.

B8: Kp 2G02 (antibody, V domains shown)
VH: EVQLQQSGPVLVKPGPSVKISCKASGFTFTDYYMHWVKQSHGKSLEWIGLVYPYNGGTYYNQKFKGKATLTVDTSSSTAYMELNSLTSEDSAVYYCVRLGNGSSNEWYFDVWGTGTTVTVSS
VL: QIVLTQSPALMAASPGEKVTITCSVSSSISSYNLHWYQQKSETSPKPWIYGTSNLASGVPVRFSGSGSGTSYSLTISSMEAEDAATYYCQQWRTYPWTFGGGTKLEIKR
Take B8: the results for the EC50 with Kp FimHLD, in the assay with Ec FimHLD and in the assay with Ec FmlHLD were 0.0105 µg/mL, 0.015 µg/mL and 0.0144 µg/mL, respectively.

B9: Kp 1C01 (antibody, V domains shown)
VH: EVQLQQPGPVLVKPGPSVKISCKASGFTFTDYYMHWVKQSHGKSLEWIGLVSPYNGGTFYNQKFKGKATLTVDTSSSTAYMELNSLTSEDSAVYYCARVGNSYVHYAMDYWGQGTSVTVSS
VL: QIVLTQSPALMAASPGEKVTITCSVSSSISSSNLHWYQQKSETSPKPWIYGTSNLASGVPVRFSGSGSGTSYSLTISSMEAEDAATYYCQQWSNYPYTFGGGTKLEIKR
With B9, the EC50 is 0.0125 µg/mL in the assay with Kp FimHLD, 0.0146 µg/mL with Ec FimHLD and 0.886 µg/mL with Ec FmlHLD.

B10: Kp 2E08 (antibody, V domains shown)
VH: EVQLQQPGAELAKPGASVKLSCKASGYNFTSYWMHWVKQRPGQGLEWIGLIHPNSGGTYYNEKFKSKATLTLDRSSSTAYMQLSSLTSEDSAVYYCARFEEEWGGYWYFDVWGTGTTVTVSS
VL: QIVLTQSPALMAASPGEKVTITCSVSSSISSSNLHWYQQKSETSPKPWIYGTSNLASGVPVRFSGSGSGTSYSLTISSMEAEDAATYYCQQWSSYPYTFGGGTKLEIKR
With B10, the EC50 is 0.0149 µg/mL with Kp FimHLD and 0.0092 µg/mL with Ec FimHLD.

B11: Ec E7 (antibody, V domains shown)
VH: EVQLQQSGAELVKPGASVKVSCKASGYSFTNYWVHWVKQRPGQGLEWIGRIYSSDGDSNYNQKFKGKATLTVDKSSSTAYMQLSSLTSEDSAVYYCAIEGNLYFDYWGQGTTLTVSS
VL: DIVLTQSPASLAVSLGQRATISCRASQSVSTSSYSYMHWYQQKPGQPPKFLIKYASNLESGVPARFSGSGSGTDFTLNIHPVEEEDTATYYCQHSWEIPLTFGAGTKLKLKR
As for B11, in the assay with Ec FimHLD, the EC50 worked out at 0.0266 µg/mL.

B12: Ec F11 (antibody, V domains shown)
VH: QVQLKESGPGLVAPSQSLSITCTVSGFSLTNYAISWVRQPPGKGLEWLGIIWTGGGTLYNSALKSRPSISKDNSKSQVFLKMNSLQTDDTARYYCARAYYSNYDWYFDVWDTGTTVTVSS
VL: DIQMTQSPSSLSASLGDRVTISCSASQGISNYLNWYQQKPDGTVKLLIYYTSSLHSGVPSRFSGSGSGTDYSLTISNLEPEDIATYYCQQYSQVPYTFGGGTKLEIKR
On to B12, for which the half-maximal effective concentration (EC50) with Kp FimHLD was 0.752 µg/mL; in the assay with Ec FimHLD it was 0.0273 µg/mL.

B13: Ec C12 (antibody, V domains shown)
VH: QVQLKQSGPGLVAPSQSLSITCTVSGFSLTNYAISWVRQPPGKGLEWLGIIWTGGGTLYNSALKSRLSISKDNSKSQVFLKMNSLQTDDTARYYCARAYYSNYDWYFDVWDTGTTVTVSS
VL: DIQMTQSPSSLSASLGDRVTISCSASQGISNYLNWYQQKPDGTVKLLIYYTSSLHSGVPSRFSGSGSGTDYSLTISNLEPEDIATYYCQQYSQVPYTFGGGTKLEIKR
Turning to B13, in the assay with Ec FimHLD, the half-maximal effective concentration (EC50) was determined as 0.0122 µg/mL.

B14: Kp 1B02 (antibody, V domains shown)
VH: EVQLQQSGAELVRPGSSVKMSCKTSGYTFTFYGINWVKQRPGQGLEWIGYIYVGNGYSEYNEKFKVKATLTSDTSSSTAYMQLSGLTSEDSAIYFCARSDGYNYFDYWGQGTTLTVSS
VL: QIVLTQSPAILSASPGEKVTMTCRASSSLHYMHWYQQKTGSSPKPWIYATSNLASGVPARFSGSGSGTSYSLTISRVEAEDTATYYCQQWSSNPPTFGAGTKLELKR
On to B14, for which the figures for the EC50 with Kp FimHLD and with Ec FimHLD were 0.0166 µg/mL and 0.024 µg/mL, respectively.

B15: Kp 1B07 (antibody, V domains shown)
VH: EVQLQQPGAELVKPGTSVKLSCKASGYTFTSYWMHWVKQRPGQGLEWIGMIHPNSGSTNYNEMFESKASLTVDKSSSTAYMQLSSLTSEDSAVYYCARIGYSGWGQGTSVTVSS
VL: DIVMTQSPSSLSVSAGEKVTMSCKSSQSLLNGGNQKNYLAWYQQKPGQPPKVLINGASTRESGVPDRFTGNGSGTDFTLTISSVQAEDLAVYYCQNDHTYPLTFGAGTKLELKR
The molecule B15 came in with an EC50 in the assay with Kp FimHLD of 0.0148 µg/mL.

B16: Kp 1E04 (antibody, V domains shown)
VH: EVQLQQSGAELVKPGASVKLSCKASGYTFTSYWVHWVRQRPGQGLEWIGMIHPNSGSTNYNEKFKSKATLTVDKSSSTAYMQLSSLTSEDSAVYYCASYYYGSSYYFDYWGQGTTLTVSS
VL: DIVMTQSPSSLTVTAGEKVTMSCKSSQSLLNSGNQKNYLTWYQQKPGQPPKLLIYWASTRESGVPDRFTGSGSGTDFTLTISSVQAEDLAVYYCQNDYSYPLTFGAGTKLELKR
B16: a half-maximal effect with Kp FimHLD (EC50) was put at 0.731 µg/mL.

B17: Ec A2 (antibody, V domains shown)
VH: EVQLQQSGAEQVRPGASVKMSCKASGYTFTTYNMNWMKQTPGQGLEWIGVIYPGNGDISYNQKFKGKATLTVDKSSSTAYMQLSSLTSEDSAVYFCAREGDYGPWFAYWGQGTLVTVSA
VL: QIVLTQSPAIMSASPGEKVTMTCRASSSVSSSYLHWYQQKSGASPKFWIYSTSKLASGVPARFSGSGSGTSYSLTISSVEAEDAATYYCQHYSRYPLTFGGGTKLEIKR
Regarding B17, the EC50 in the assay with Kp FimHLD was determined as 0.0141 µg/mL; in the assay with Ec FimHLD it was 0.0131 µg/mL.

B18: Ec3 B7 (antibody, V domains shown)
VH: EVQLQQPGAELVRPGASVKMSCKASGYTFTIYNLHWVKQTPRQGLEWIGTIYPGDGDTSYNQKFKGKATLTVDKSSSTAYMQLSNLTSEDSAVYFCAREGDYGPWFAYWGQGTLVTVSA
VL: QIVLTQSPAIMSASPGEKVTMTCRASSSVSSSYLHWYQQKSGASPKLWIYSSSNLASGVPARFSGSGSGTSYSLTINSVEAEDAATYYCQHYGSYPLTFGGGTKLEIKR
Regarding B18, the EC50 stood at 0.0391 µg/mL with Kp FimHLD and 0.0241 µg/mL with Ec FimHLD.
